Holding throughout (settings): FMN input: 0 or 200 uM; Eterna round: R93 (includes R88 designs)
The test system of series [1] is MS2 coat protein. As to the kind of experiment: apparent KD of MS2 coat protein, switch ON state; designed switch direction (-1 OFF switch, 1 ON switch): 1; higher = weaker reporter binding. The method, boiled down:
(§1)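 Illumina sequencing clusters served as templates for on-chip transcription of the designed RNA switches. SNAP-549-labelled MS2 coat protein was then titrated in twofold steps from 0.7 or 1.5 nM to 3 µM, allowing 0.8–1.5 h per step at first and 10–20 min per step later. The buffer held 100 mM Tris-HCl pH 7.5, 80 mM KCl and 4 mM MgCl2, without or with constant ligand. Apparent KD is the median per design of normalised cluster binding-curve fits.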

Series [2] relates to MS2 coat protein. As to the kind of experiment: apparent KD of MS2 coat protein, switch OFF state (with FMN for OFF switches, without FMN for ON switches); designed switch direction (-1 OFF switch, 1 ON switch): 1; higher = weaker reporter binding. The method, boiled down: as §1
Series [3] relates to MS2 coat protein. As to the kind of experiment: apparent KD of MS2 coat protein, switch ON state; designed switch direction (-1 OFF switch, 1 ON switch): -1; higher = weaker reporter binding. The gist of the method: as §1
In series [4] the test system is MS2 coat protein. Kind of series: apparent KD of MS2 coat protein, switch OFF state (with FMN for OFF switches, without FMN for ON switches); designed switch direction (-1 OFF switch, 1 ON switch): -1; higher = weaker reporter binding. The gist of the method:
as §1

“UAGGGAACAGGGUAGGAUAUGCAUGGUCGUACAUGAGGAUCACCCAUGUAGCCUAGAAAAUAAAUGCAGAAGGACCAAAAGAAAA [Ononmaesra]”: the entries for the “apparent KD of MS2 coat protein” value in series [1] and in series [2] were 16.5 nM and 48.3 nM, respectively.
On the same counts, the results for “GGGAAGAACAGAGAGGAUAUCCAAAGGAAAACAUGAGGAUCACCCAUGUAAAAGGAAGGAAAUUGGGAGAAGGCUCAAAAGAGAA [salish99-ss2-023]” are 32.5 nM and 36.4 nM.
Turning to “AACAAUCUAUCUGAGGAUAUCAAAAAAAAAACAUGAGGAUCACCCAUGUCUAGGAAAACUAGAUAUGAGAAGGCAGAUAGAUUGA [SS1 - 593]”, the “apparent KD of MS2 coat protein” value was found to be 7.93 nM in series [1] and 49.6 nM in series [2].
On the same counts, the results for “AAUAGACAUGAGGAUCACCCAUGUAGAAUUAUGGGAGGAUAUACAAAGACGAGAGUCAGAGUAGAAGGCCUAGGAA [salish99-ss1-148]” are 23.6 nM and 71.5 nM.
With “AAAGGACGAGGAUAUACAUGAGGAUCACCCAUGUAAGAAGCAUAAUAAAAUAACUUAUGUAGAAGGCGUCCAAA [Mat - Exclusion 3 - Eli mod - D94]”, the “apparent KD of MS2 coat protein” value in series [3] is 26 nM; in series [4], 69 nM.
As to “GGAAAGUGAGGAUAUGCAUAACAAACACAAACACAAACAAAGCAGAAGGCACAUGAGGAUCACCCAUGUAAACA [Exclusion 4 Willow]”, the “apparent KD of MS2 coat protein” value is 23.5 nM in series [3] and 22.3 nM in series [4].
On the same counts, the results for “AUAAGUGCAGGAUAUACAAAAUGCUAGCGAAAGCUAGCAUAACAUGAGGAUCACCCAUGUAGAAGGGCACAAUA [Tetraloop hairpin BlockHead... 61% 1]” are 23.5 nM and 18.4 nM.
On the same counts, the results for “AAUAAUGGAGGAUAUACUAAAGAAAUGAAAAGAAAUAAAGAACAUGAGGAUCACCCAUGUAGAAGGCCAAAUAA [Khamure]” are 26 nM and 27.8 nM.
On the same counts, the results for “AAAAGCACAGGAUAUACAAGGAUAUGACGAAAGUCAUAAAAACAUGAGGAUCACCCAUGUAGAAGGGUGCAAAA [Mod of Meechl's... 64% 3]” are 206 nM and 136 nM.
For the sequence “CUCGUGUCAGGAUAUGGAAGGCCGUUUGAUUAACGAGGGUACUAGAAGGGACAUGAGGAUCACCCAUGUAAAAA [Maonis]”, the “apparent KD of MS2 coat protein” value was 81.5 nM in series [3] and 90.4 nM in series [4].
As to “AAAAAGUGAGGAUAUACGGUGAGGAGUAGACACAACCUGGCGUAGAAGGCACAUGAGGAUCACCCAUGUCCAAA [EX4 Malc#13]”, the entries for the “apparent KD of MS2 coat protein” value in series [3] and in series [4] were 37.3 nM and 47.8 nM, respectively.
On the same counts, the results for “AAGAAGUAAGGAUAUACAAGAAAGAAAGAAAAGAAAAGAAAACAUGAGGAUCACCCAUGUAGAAGGUACUAGAA [EteRNA is fun!]” are 24.1 nM and 14.9 nM.
On the same counts, the results for “AAGAAGUCAGGAUAUGCUGCUCGUCACUUGCGUGAUGAGUAGCAGAAGGGACAUGAGGAUCACCCAUGUGGAAA [Modifying Chris (69%) Late G segment 2]” are 123 nM and 246 nM.
On the same counts, the results for “AAGAACUGAGGAUAUACACAAGAAAAGAAAAGAAAGAAAGAACAUGAGGAUCACCCAUGUAGAAGGCGGAAGAA [Merhotepre Sobekhotep V]” are 39.3 nM and 26.5 nM.
“AGGGAACAUGAGGAUCACCCAUGUGAGGAUAUGCUAUGGAAAUAAAAAAUAAAACAUAGCAGAAGGCAUAAAAA [Mat - Exclusion 1 - Eli mod - D39]”: the “apparent KD of MS2 coat protein” value in series [3] was found to be 47.6 nM; in series [4], 46.1 nM.
As to “AGAAAGUCAGGAUAUGUACAAAAUAAAAUAAAAAUAAAAGUACAGAAGGGACAUGAGGAUCACCCAUGUAAAGA [Mat - Exclusion 4 - Mayanna - D121]”, the “apparent KD of MS2 coat protein” value was determined as 50.2 nM in series [3] and 52.4 nM in series [4].
For “AACAGGUGAGGAUAUCUGGAUAGGAAAAAGAAAACCUAUCCAGAGAAGGCACAUGAGGAUCACCCAUGUAAAAA [JL cataway mod 8]”, the figures for the “apparent KD of MS2 coat protein” value in series [3] and in series [4] were 78.5 nM and 96.2 nM, respectively.
For “AACUAGUCAGGAUAUACGAACAUGUCAAAAAACAUGAAGGGACAUGAGGAUCACCCAUGUAGAAGGGACUAGCA [74%, Web mod - With 3 less G's]”, the “apparent KD of MS2 coat protein” value turned out to be 60.5 nM in series [3] and 209 nM in series [4].
On the same counts, the results for “GAUCAGCUAGGAUAUACAUUAAUCCGAUAUGAGAAGAAAGAACAUGAGGAUCACCCAUGUAGAAGGAGCCAGUA [Ridigeer]” are 40.2 nM and 39.3 nM.
On the same counts, the results for “GGAAAACAUGAGGAUCACCCAUGUAAGGAUAUGCAAAAAAAAAAAGGAUAUAGAAGGAGCAGAAGGUACAAAGG [salish99-ex1-29]” are 36.2 nM and 57 nM.
On the same counts, the results for “AAAGGAUCAGGAUAUGUGUGGAAAAAGUGUGUCCCAAAAAAACAUGAGGAUCACCCAUGUAGAAGGGAUCCAAA [Mod 5 of Normal (20/19) by Nando, Round 1]” are 44.9 nM and 97.8 nM.
For the sequence “AAGAAACAUGAGGAUCACCCAUGUGAGGAUAUUCAAAAGAAAAGAAAAGAAAGAAGAAGAAGAAGGCACAAAGG [Neferkamin]”, the entries for the “apparent KD of MS2 coat protein” value in series [3] and in series [4] were 24.7 nM and 45.5 nM, respectively.
On the same counts, the results for “AGUCUGAGAGGAUAUACAUGGGAAAAAAAAGUAAGAUCCCUACAUGAGGAUCACCCAUGUAGAAGGCUCUGACA [Ex2 Design 143: Sub-opt 7]” are 27.4 nM and 17.9 nM.
In the case of “AAAAAACAUGAGGAUCACCCAUGUGAGGAUAUCAGUAGUCAGUCCUCGGAGUGAGUACUGAGAAGGCACAUAAA [Brourd 613 Mod 2- Jieux - Exclusion 1]”, the “apparent KD of MS2 coat protein” value in series [3] stood at 65.9 nM; in series [4], 113 nM.
On the same counts, the results for “AAAACUGGAGGAUAUACGAACAUGUCAAAAGACGUGAAGGGACAUGAGGAUCACCCAUGUAGAAGGCUAGAAAA [JL Stem Breaker 10]” are 52.3 nM and 34.2 nM.
On the same counts, the results for “CGCAAGUCAGGAUAUUCGACAGGUAAAUCAGUGGAUCAGAAGGAGAAGGGACAUGAGGAUCACCCAUGUAUGUA [JR_Exc004_Sub407]” are 49.4 nM and 23.1 nM.
On the same counts, the results for “AAAAAUGGAGGAUAUACAUGAGGAUCACCCAUGUGAGACCAAGAAAAAGAAAAAGAAAGUAGAAGGCCAUAAAA [Ex 3 May 24]” are 24.5 nM and 152 nM.
Regarding “GCUGUCGAAGGAUAUACAUGAGGAUCACCCAUGUGAGAGAAAAAAGUGAGAAAGAAAAGUAGAAGGUCGGUAGG [salish99-ex3-97]”, the “apparent KD of MS2 coat protein” value in series [3] amounted to 29.6 nM; in series [4], 35.7 nM.
As for “AGUUGGCGAGGAUAUACAUGAGGAUCACCCAUGUGAGAGAAUAAAGUGAGAAAGAAAAGUAGAAGGCGCUCACA [JL Lego Mod 16]”, the figures for the “apparent KD of MS2 coat protein” value in series [3] and in series [4] were 60.3 nM and 45.1 nM, respectively.
On the same counts, the results for “AAAAAACAUGAGGAUCACCCAUGUGAGGAUAUGCAAAACCCAAAUAAAAAGAGAAAAAGCAGAAGGCACAACAA [wbt round 1 mod 3]” are 15.7 nM and 13.8 nM.
For “AAUAACAGAGGAUAUACAAAAAUAAAAGGAAACAAAAGAAAACAUGAGGAUCACCCAUGUAGAAGGCUGAAUAA [Tetraloop BlockHead]”, the entries for the “apparent KD of MS2 coat protein” value in series [3] and in series [4] were 19.4 nM and 20.3 nM, respectively.
On the same counts, the results for “AAAAAGAUAGGAUAUACGAACAUGUCGAAAGACGUGAAGGGACAUGAGGAUCACCCAUGUAGAAGGAUUAAAAA [Mat - Exclusion 2 - JL mod - D89]” are 41.9 nM and 16.8 nM.
On the same counts, the results for “CUCAAGUGAGGAUAUACGAAUAGUAAGUAAGUAUAACAGACGUAGAAGGCACAUGAGGAUCACCCAUGUAAAUA [JR_Exc004_Sub303]” are 36.2 nM and 28 nM.
On the same counts, the results for “AAAAAACAUGAGGAUCACCCAUGUGAGGAUAUCGGUAGUGAGGGUAUAGUGUCAAUAGUGAGAAGGCGCAUAAA [Brourd 613 Mod 13 - Jieux - Exclusion 1]” are 26.3 nM and 28 nM.
In the case of “GGAAAGUCAGGAUAUGGAUAAUAAAUACAAAUAGAAACAAACCAGAAGGGACAUGAGGAUCACCCAUGUAAACA [Exclusion 4 Electric]”, the “apparent KD of MS2 coat protein” value came to 35.3 nM in series [3] and 22.6 nM in series [4].
On the same counts, the results for “AAAAAACAUGAGGAUCACCCAUGUCAGGAUAUUUCUAAAAAAAAAAAAAAAAAAAAUGAAAGAAGGGACAAAAA [excalibur 6]” are 58 nM and 52.5 nM.
On the same counts, the results for “AGUCGGCGAGGAUAUACAUGAGGAUCACCCAUGUGAGAGAAAAAAGUGAGUUAGACAUGUAGAAGGCGCUGACA [JL Lego Mod 8]” are 54 nM and 26.8 nM.
On the same counts, the results for “AAAAUACAUGAGGAUCACCCAUGUUAGGAUAUCGGAUAAAUAAAAUAAAAUAAAAUAACGAGAAGGGACAAUAA [Exclusion1 Malc#2]” are 24.6 nM and 31.6 nM.

The record behind these values is the supplement of paper PMC9170038.
